Measurements published in US20250320281A1.

What was measured:
Experiment in all cases: cell-based or functional assay
[1] = target: HIV-1 Env of pseudovirus MGRM-Chronic-B-020 (HIV-1)
[2] = target: HIV-1 Env of isolate MGRM-Chronic-B-008, clade B, on pseudovirus (HIV-1)
[3] = target: HIV-1 IAVI-C18 envelope glycoprotein (Env) on pseudovirus (HIV-1)
[4] = target: HIV-1 Env of isolate 97ZA012 (clade C) (HIV-1 isolate 97ZA012)
[5] = target: HIV-1 Env of isolate APV_6, clade B, on pseudovirus (HIV-1)
[6] = target: HIV-1 Env of pseudovirus MGRM-AG-006 (clade CRF_AG) (HIV-1)
[7] = target: HIV-1 Env of pseudovirus MGRM-G-006 (clade G) (HIV-1)
[8] = target: HIV-1 Env of pseudovirus MGRM-G-019 (HIV-1, clade G isolate MGRM-G-019)
[9] = target: HIV-1 Env of pseudovirus MGRM-AG-008 (clade CRF_AG) (HIV-1)
[10] = target: envelope protein of aMLV pseudovirus (negative control)
[11] = target: HIV-1 Env of pseudovirus MGRM-G-024 (HIV-1, clade G isolate MGRM-G-024)
[12] = target: HIV-1 Env of pseudovirus MGRM-G-015 (HIV-1, clade G isolate MGRM-G-015)
[13] = target: HIV-1 Env of pseudovirus MGRM-AG-013 (clade CRF_AG) (HIV-1)
[14] = target: HIV-1 envelope glycoprotein (Env) of isolate MGRM-A-008, clade A (HIV-1)
[15] = target: HIV-1 envelope glycoprotein (Env) of isolate MGRM-A-005, clade A (HIV-1)
[16] = target: HIV-1 93IN905 envelope glycoprotein (Env) on pseudovirus (HIV-1)
[17] = target: HIV-1 Env of isolate MGRM-D-008 (clade D pseudovirus) (HIV-1)
[18] = target: HIV-1 envelope glycoprotein (Env) of isolate MGRM-C-007 (HIV-1)
[19] = target: HIV-1 92BR020 Env (pseudovirus) (HIV-1)
[20] = target: HIV-1 MGRM-A-010 Env (pseudovirus, clade A) (HIV-1)
[21] = target: HIV-1 92BR020 Env (pseudovirus, clade B) (HIV-1)
[22] = target: HIV-1 Env of isolate MG RM-D-018 (HIV-1)
[23] = target: HIV-1 envelope glycoprotein (Env) of isolate MGRM-C-020 (HIV-1)
[24] = target: HIV-1 Env of isolate MGRM-C-026 (pseudovirus) (HIV-1)
[25] = target: HIV-1 Env of isolate MGRM-A-004 (HIV-1)
[26] = target: HIV-1 Env of isolate JRCSF (subtype B) (HIV-1) (UniProt P20871)
[27] = target: HIV-1 Env of isolate 92UG024 (HIV-1)
[28] = target: HIV-1 Env of isolate MGRM-A-011 (subtype A) (HIV-1)
[29] = target: HIV-1 Env of isolate 93WR029 (HIV-1)
[30] = target: HIV-1 Env of isolate APV-6 (HIV-1)
[31] = target: HIV-1 Env of isolate MGRM-Chronic-B-010 (subtype B) (HIV-1)
[32] = target: HIV-1 Env of isolate MGRM-Chronic-B-012 (subtype B) (HIV-1)

Chain of 5329_C19 (PGT-136) (antibody) (VH): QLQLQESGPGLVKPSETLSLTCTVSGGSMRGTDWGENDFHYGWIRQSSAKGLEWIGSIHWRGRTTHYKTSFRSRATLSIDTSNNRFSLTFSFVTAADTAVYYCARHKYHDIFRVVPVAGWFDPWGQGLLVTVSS
Chain of 5329_C19 (PGT-136) (antibody) (VL): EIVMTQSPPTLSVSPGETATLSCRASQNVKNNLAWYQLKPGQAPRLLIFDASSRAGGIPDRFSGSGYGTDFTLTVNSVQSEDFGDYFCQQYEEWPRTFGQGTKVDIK

Row | Substance | IC50 (µg/ml), pseudovirus neutralization [1] [µg/mL] | IC50 (µg/ml), pseudovirus neutralization [2] [µg/mL] | IC50, pseudovirus neutralization [3] [µg/mL] | IC50 (µg/ml), pseudovirus neutralization [4] [µg/mL] | IC50 (µg/ml), pseudovirus neutralization [5] [µg/mL] | IC50 [6] [µg/mL] | IC50 [7] [µg/mL] | IC50 (µg/ml), pseudovirus neutralization [8] [µg/mL] | IC50 [9] [µg/mL] | IC50 (µg/ml), pseudovirus neutralization [10] [µg/mL] | IC50 (µg/ml), pseudovirus neutralization [11] [µg/mL] | IC50 (µg/ml), pseudovirus neutralization [12] [µg/mL] | IC50 [13] [µg/mL] | IC50 (µg/ml), pseudovirus neutralization [14] [µg/mL] | IC50 (µg/ml), pseudovirus neutralization [15] [µg/mL] | IC50, pseudovirus neutralization [16] [µg/mL] | IC50 (µg/ml), pseudovirus neutralization [17] [µg/mL] | other results
1 | b12 (antibody) | 6.16 | 2.82 | > 50 | > 50 | > 50 | > 50 | > 50 | 3.77 | > 50 | > 50 | 2.38 | > 50 | > 50 | > 50 | 3.64 | 34.1 | > 50 | –
2 | 5329_C19 (PGT-136) (antibody) | – | – | – | – | – | – | – | – | – | – | – | – | – | – | – | – | – | IC50 (µg/mL), pseudovirus neutralization [18]: > 50 µg/mL; neutralization IC50 (pseudovirus) [19]: > 10 µg/mL; IC50 neutralization [20]: > 10 µg/mL; IC50 neutralization [21]: > 10 µg/mL; IC50 (µg/mL), pseudovirus neutralization [22]: > 50 µg/mL; IC50 (µg/mL), pseudovirus neutralization [23]: > 50 µg/mL; Primary Neutralization Index (B cell culture supernatant) [24]: 6; IC50 [25]: > 50 µg/mL; IC50 neutralization [26]: > 50 µg/mL; IC50 (µg/mL), pseudovirus neutralization [27]: 0.052 µg/mL; IC50 (µg/mL), pseudovirus neutralization [28]: > 50 µg/mL; IC50 [29]: > 50 µg/mL; neutralization IC50 [30]: > 50 µg/mL; IC50 neutralization [31]: > 50 µg/mL; IC50 neutralization [32]: 43.1 µg/mL
3 | 2F5 (antibody) | 0.78 | > 50 | > 50 | > 50 | 0.25 | 0.85 | 1.33 | > 50 | 0.54 | > 50 | 1.07 | 0.43 | 1.79 | > 50 | 5.7 | > 50 | > 50 | –
4 | 2G12 (antibody) | 0.2 | 0.55 | > 50 | > 50 | 1.9 | 3.92 | > 50 | 31 | > 50 | > 50 | > 50 | > 50 | 0.95 | > 50 | > 50 | > 50 | > 50 | –
5 | 1495_C14 (PGC14) (antibody) | > 50 | > 50 | > 50 | > 50 | 23 | > 50 | > 50 | > 50 | 45 | > 50 | > 50 | > 50 | > 50 | > 50 | > 50 | > 50 | > 50 | –
